Target: hen egg lysozyme (hen) (UniProt P00698)
Experiment: cell-based or functional assay

pair of chimeric receptor polypeptides: HyHEL-10 VH fused to mouse erythropoietin receptor (pME-VHER) and HyHEL-10 VL fused to mouse erythropoietin receptor (pME-VLER), expressed on Ba/F3 cells (from, sequence (P14753 146-507, change not shown): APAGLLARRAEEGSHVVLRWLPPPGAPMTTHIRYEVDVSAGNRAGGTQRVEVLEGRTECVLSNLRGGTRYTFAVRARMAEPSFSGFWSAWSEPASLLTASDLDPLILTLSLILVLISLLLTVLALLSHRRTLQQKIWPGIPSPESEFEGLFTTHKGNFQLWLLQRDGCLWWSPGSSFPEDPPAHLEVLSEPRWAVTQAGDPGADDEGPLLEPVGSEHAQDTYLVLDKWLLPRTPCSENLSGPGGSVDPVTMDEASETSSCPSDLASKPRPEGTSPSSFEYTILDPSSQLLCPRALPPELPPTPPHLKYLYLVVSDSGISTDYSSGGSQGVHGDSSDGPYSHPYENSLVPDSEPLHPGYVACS
pair of chimeric receptor polypeptides: HyHEL-10 VH fused to mouse erythropoietin receptor (pME-VHER) and HyHEL-10 VL fused to mouse erythropoietin receptor (pME-VLER), expressed on Ba/F3 cells (from, sequence (P14753 146-507, change not shown): as above
hen egg lysozyme (hen), sequence (P00698 19-147): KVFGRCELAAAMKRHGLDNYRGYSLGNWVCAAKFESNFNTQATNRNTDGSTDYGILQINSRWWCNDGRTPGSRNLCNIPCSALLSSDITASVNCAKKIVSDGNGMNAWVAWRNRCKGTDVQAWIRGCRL

- cell proliferation of Clone G8 cultured with different constant amounts of HEL over a 5-day period (times the rate): > 5
- lowest HEL concentration giving accelerated cell growth: 5 ng/mL
Substance: pair of chimeric receptor polypeptides: HyHEL-10 VH fused to mouse erythropoietin receptor (pME-VHER) and HyHEL-10 VL fused to mouse erythropoietin receptor (pME-VLER), expressed on Ba/F3 cells (from UniProt P14753 146-507; P14753 146-507)
